# Experimental data from US20250064890A1, “PROTEIN COMPOSITIONS FOR THE TREATMENT OF INFLAMMATORY DISEASES” (Unichem Laboratories Limited, priority 2021, published 2025).
# Key:
# IL-12/IL-23p40 = assay: Multiplex analysis, chemotherapy (5-FU), TR146; type: cell-based, human; conditions: for IL-12/IL-23p40 against chemotherapy induced levels: 5-FU, in words
# Protocol: (§1) Oral buccal mucosal cells (TR146) cells were incubated overnight at 37° C. in 5% CO2 incubator. […] The cells were then stimulated with 5-FU (10 mM) for another 24h for chemotherapy and with gamma radiation (3.5 kGy) using Cobalt 60 for radiotherapy. After 24 h, cell culture supernatants were collected from each well and stored at −20° C. till multiplex analysis. For NF-kB estimations, cell lysates were prepared. Levels of biomarkers were estimated using Magpix® multiplex machine. The cells treated with Amifostine (along with 5-FU or radiation) were considered as positive control (PC). Untreated cells (5-FU or radiation alone treated) were used as negative control (NC).
# (§2) The percent modulation in each sample was determined as follows:
# (§3) [{Concentration of biomarkers (pg/ml) in Control cells (5-FU or radiation alone treated)−Concentration of biomarkers (pg/ml) in SEQ ID NO: 2+5-FU or radiation treated cells)}/Concentration of biomarkers (pg/ml) in Control cells (5-FU or radiation alone treated)]*100
# IL-1β = assay: Multiplex analysis, chemotherapy (5-FU), TR146; type: cell-based, human; conditions: for IL-1-β against chemotherapy induced levels: 5-FU, in words
# Protocol: as §1, §2, §3
# IL-6 = assay: Multiplex analysis, chemotherapy (5-FU), TR146; type: cell-based, human; conditions: for IL-6 against chemotherapy induced levels: 5-FU, in words
# Protocol: as §1, §2, §3
# MMP-3 = assay: Multiplex analysis, chemotherapy (5-FU), TR146; type: cell-based, human; conditions: for MMP-3 against chemotherapy induced levels: 5-FU, in words
# Protocol: as §1, §2, §3
# TNF-α = assay: Multiplex analysis, chemotherapy (5-FU), TR146; type: cell-based, human; conditions: for TNF-α against chemotherapy induced levels: 5-FU, in words
# Protocol: as §1, §2, §3
# VEGF = assay: Multiplex analysis, chemotherapy (5-FU), TR146; type: cell-based, human; conditions: for VEGF against chemotherapy induced levels: 5-FU, in words
# Protocol: as §1, §2, §3
# NF-kB = assay: Multiplex analysis, chemotherapy (5-FU), TR146 cell lysates; type: cell-based, human
# Protocol: as §1, §2, §3
# [1] = Body weight change in 5-FU induced OM hamsters; type: in vivo, golden Syrian hamsters; conditions: Day 4 to Day 12, with respect to Day 4
# Protocol: In-vivo experiments conducted in healthy golden Syrian hamsters wherein animals were grouped as below:
# (§4) To induce OM, animals were administered (except normal control) 5-Fluorouracil (5-FU) by intraperitoneal route at doses of 60 mg/kg & 40 mg/kg respectively on first two days. On Day 4, under anesthesia, with aim of enhancing OM, mechanical irritation of the oral mucosa were done using wire brush. Treatment was initiated from Day 4 to Day 12. For group 3 animals 100 μl of vehicle comprising of standard drug Dexamethasone at 0.1 mg was instilled in buccal cheek pouch. For group 4, 5 and 6 animals 100 μl of vehicle comprising of SEQ ID NO. 2 at 0.25 mg, 0.5 mg & 1 mg, respectively was instilled in buccal cheek pouch. At the end of treatment period, cheek pouch of the hamsters was exposed, Mucositis scoring was carried out and images were captured. The animals were then humanely sacrificed, cheek pouch/jugular mucosa were isolated and used for biomarker estimation and histopathological investigation by using ELISA method and Hematoxylin and Eosin (H&E) staining, respectively.
# Body weight of each animal was recorded daily till the end of experiment. Percentage change in body weight of the animals was calculated by using formula with respect to Day 4.
# Interleukin-1β = Interleukin-1β in jugular mucosa (ELISA), 5-FU induced OM in hamsters; type: in vivo, golden Syrian hamsters; conditions: for IL-1β levels, % Decrease vs G2: G2 = OM + Vehicle
# Protocol: as §4
# Further, for biomarker estimation jugular mucosa was dissected out, tissue weighed and stored in ice cold 1×PBS. 100 mg of tissue was taken and in 1 ml of 1×PBS buffer. Supernatant of homogenate was used for analysis of TNF-α and Interleukin-1β using ELISA method as per manufacturers instruction. The levels of TNF-α and Interleukin-1β are given in Table 13, FIG. 2 and Table 14, FIG. 3, respectively.
molecule,measurement,setting,value
"SEQ ID NO 2: recombinant lectin, variant of the S. rolfsii lectin amino acid sequence (reported as Rec-2 in WO 2010/095143) (protein) TYKITVRVYQTNPDAFFHPVEKTVWKYANGGTWTITDDQHVLTMGGSGTSGTLRFHADNGESFTATFGVHNYKRWCDIVTNLAADETGMVINQQYYSQKNREEARERQLSNYQVKNAKGRNFQIVYTEAEGNDLHANLIIG",Percentage Inhibition IL-12/IL-23p40,IL-12/IL-23p40; 0.1 μg/ml + 5-FU (10 mM),13.5%
same,Percentage Inhibition IL-12/IL-23p40,IL-12/IL-23p40; 10 μg/ml + 5-FU (10 mM),33.8%
same,Percentage Inhibition IL-12/IL-23p40,IL-12/IL-23p40; 25 μg/ml + 5-FU (10 mM),36.8%
same,Percentage Inhibition IL-12/IL-23p40,IL-12/IL-23p40; 50 μg/ml + 5-FU (10 mM),42.6%
same,Percentage Inhibition IL-12/IL-23p40,IL-12/IL-23p40; 100 μg/ml + 5-FU (10 mM),36.6%
same,IL-12/IL-23p40 against chemotherapy induced levels,IL-12/IL-23p40,lowering of levels
same,IL-12/IL-23p40 against chemotherapy induced levels,IL-12/IL-23p40; listed as test items,downregulation
same,Percentage Inhibition IL-1β,IL-1β; 0.1 μg/ml + 5-FU (10 mM),5.5%
same,Percentage Inhibition IL-1β,IL-1β; 10 μg/ml + 5-FU (10 mM),3.6%
same,Percentage Inhibition IL-1β,IL-1β; 25 μg/ml + 5-FU (10 mM),11%
same,Percentage Inhibition IL-1β,IL-1β; 50 μg/ml + 5-FU (10 mM),29.1%
same,Percentage Inhibition IL-1β,IL-1β; 100 μg/ml + 5-FU (10 mM),23.5%
same,IL-1-β against chemotherapy induced levels,IL-1β,lowering of levels
same,IL-1-β against chemotherapy induced levels,IL-1β; listed as test items,downregulation
same,Percentage Inhibition IL-6,IL-6; 0.1 μg/ml + 5-FU (10 mM),5.4%
same,Percentage Inhibition IL-6,IL-6; 10 μg/ml + 5-FU (10 mM),7.8%
same,Percentage Inhibition IL-6,IL-6; 25 μg/ml + 5-FU (10 mM),18.2%
same,Percentage Inhibition IL-6,IL-6; 50 μg/ml + 5-FU (10 mM),38.6%
same,Percentage Inhibition IL-6,IL-6; 100 μg/ml + 5-FU (10 mM),42.2%
same,IL-6 against chemotherapy induced levels,IL-6,lowering of levels
same,IL-6 against chemotherapy induced levels,IL-6; listed as test items,downregulation
same,Percentage Inhibition MMP-3,MMP-3; 0.1 μg/ml + 5-FU (10 mM),22%
same,Percentage Inhibition MMP-3,MMP-3; 10 μg/ml + 5-FU (10 mM),29.5%
same,Percentage Inhibition MMP-3,MMP-3; 25 μg/ml + 5-FU (10 mM),30.6%
same,Percentage Inhibition MMP-3,MMP-3; 50 μg/ml + 5-FU (10 mM),27.3%
same,Percentage Inhibition MMP-3,MMP-3; 100 μg/ml + 5-FU (10 mM),8.8%
same,MMP-3 against chemotherapy induced levels,MMP-3,lowering of levels
same,MMP-3 against chemotherapy induced levels,MMP-3; listed as test items,downregulation
same,Percentage Inhibition TNF-α,TNF-α; 0.1 μg/ml + 5-FU (10 mM),13.3%
same,Percentage Inhibition TNF-α,TNF-α; 10 μg/ml + 5-FU (10 mM),10%
same,Percentage Inhibition TNF-α,TNF-α; 25 μg/ml + 5-FU (10 mM),10%
same,Percentage Inhibition TNF-α,TNF-α; 50 μg/ml + 5-FU (10 mM),13.3%
same,Percentage Inhibition TNF-α,TNF-α; 100 μg/ml + 5-FU (10 mM),6.6%
same,TNF-α against chemotherapy induced levels,TNF-α,lowering of levels
same,TNF-α against chemotherapy induced levels,TNF-α; listed as test items,downregulation
same,Percentage Inhibition VGEF,VEGF; 0.1 μg/ml + 5-FU (10 mM),25%
same,Percentage Inhibition VGEF,VEGF; 10 μg/ml + 5-FU (10 mM),24.4%
same,Percentage Inhibition VGEF,VEGF; 25 μg/ml + 5-FU (10 mM),28%
same,Percentage Inhibition VGEF,VEGF; 50 μg/ml + 5-FU (10 mM),37.8%
same,Percentage Inhibition VGEF,VEGF; 100 μg/ml + 5-FU (10 mM),41.7%
same,VEGF against chemotherapy induced levels,VEGF,lowering of levels
same,VEGF against chemotherapy induced levels,VEGF; listed as test items,downregulation
same,Percentage Inhibition NF-kB,NF-kB; 0.1 μg/ml + 5-FU (10 mM),88.6%
same,Percentage Inhibition NF-kB,NF-kB; 10 μg/ml + 5-FU (10 mM),98.4%
same,Percentage Inhibition NF-kB,NF-kB; 25 μg/ml + 5-FU (10 mM),59.7%
same,Percentage Inhibition NF-kB,NF-kB; 50 μg/ml + 5-FU (10 mM),53%
same,Percentage Inhibition NF-kB,NF-kB; 100 μg/ml + 5-FU (10 mM),84.3%
same,decrease of body weight,"[1]; G4, 0.25 mg/Animal in buccal cheek pouch",3.61%
same,decrease of body weight,"[1]; G5, 0.5 mg/Animal in buccal cheek pouch",4.36%
same,decrease of body weight,"[1]; G6, 1 mg/Animal in buccal cheek pouch",6.8%
same,"IL-1β levels, Mean","Interleukin-1β; G4, 0.25 mg/Animal",79.10
same,"IL-1β levels, % Decrease vs G2","Interleukin-1β; G4, 0.25 mg/Animal",54.45%
same,"IL-1β levels, Mean","Interleukin-1β; G5, 0.5 mg/Animal",105.66
same,"IL-1β levels, % Decrease vs G2","Interleukin-1β; G5, 0.5 mg/Animal",39.16%
same,"IL-1β levels, Mean","Interleukin-1β; G6, 1 mg/Animal",101.96
same,"IL-1β levels, % Decrease vs G2","Interleukin-1β; G6, 1 mg/Animal",41.29%
same,levels of IL-1β as compared to the untreated subjects,"Interleukin-1β; hamsters suffering from OM, in words",reduction
